Measured values taken from the supplement of paper PMC9732359.
± gives the uncertainty stated by the source.

Assay: protein stability index of a GFP-peptide fusion (yeast GPS) (PSI 1-4); higher = more stable; sorted into four equal gates, so the index is relative within each strain
Conditions: pdr5∆
Method in brief: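 The protein stability index of a peptide was calculated by multiplying its read frequency in each gate by that gate's number and adding the products. The peptides were tiled 17-residue stretches of yeast proteins, fused downstream of GFP on a Cherry-expressing plasmid and carried in yeast as a pooled library. Mid-log cultures in leucine-free medium were sorted into four equal gates by GFP/Cherry ratio, and each gate's plasmids were PCR-amplified and Illumina-sequenced.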

| Sequence | protein stability index |
| --- | --- |
| EEPSRVDPEQEAHNKAL [RPT4] | 3.31 ± 0.1 |

Same assay, conditions: san1∆

| Sequence | protein stability index |
| --- | --- |
| DLINILEKKGFSEVYEY [LIN1] | 3.3 ± 0.099 |
| DLKAQFQELDSKKQRNN [RPN9] | 3.09 ± 0.078 |
| DLKEGLQDLSRYSRQFI [GRR1] | 3.02 ± 0.038 |
| DLKKLNLNVYIQVFEKP [CDC53] | 2.33 ± 0.27 |
| DLKLPPMDAYLKLNHII [SNU114] | 2.52 ± 0.099 |
| DLKSKADKLADMANEII [RRP6] | 3.19 ± 0.082 |
| DLKSKGLIPADATFAGH [FAS1] | 3.07 ± 0.12 |
| DLMDDMSDISDLDDLGF [RPN3] | 1.57 ± 0.14 |
| DLSMVPKMKDEEYDDDD [SNF2] | 3.24 ± 0.098 |
| DLSTLVHSSSPSTSSNM [GAL11] | 2.71 ± 0.082 |
| DLVHIKDSLDNTFVTRL [RPS4A] | 3 ± 0.094 |
| DLVLQILEDTATMSVFL [RRI2] | 2.98 ± 0.054 |
| DNETPSKKTSPKATSSA [YOR098C/NUP1] | 2.41 ± 0.064 |
| DNEVQRTMLELITQLDG [RPT1] | 2.79 ± 0.14 |
| DNKIDIYQIHIPYAAKL [RPB2] | 3.15 ± 0.092 |
| DNKINEIKLLEISCKQW [CSI1] | 2.17 ± 0.12 |
| DNTVRTSANGIVQFTYG [RPO31] | 2.25 ± 0.17 |
| DNVDFILSNVDLAMANS [RPB3] | 3.12 ± 0.064 |
| DPDIPMTIDLEPIEESS [IRR1] | 3.01 ± 0.13 |
| DPDKLKPNDLVGVNKDS [RPT5] | 3.34 ± 0.055 |
| DPIWQHQSLGPDGLGEV [RET1] | 3.04 ± 0.11 |
| DPLVSLMMVEKVPDSTY [RPT6] | 2.49 ± 0.069 |
| DPQPFLKHVLQLIFRQQ [SNU114] | 2.44 ± 0.064 |
| DQIEKLREVVELPLLSP [RPT1] | 2.87 ± 0.061 |
| DQLAVSPEQIDASPDSL [YCS4] | 1.65 ± 0.1 |

| Sequence | protein stability index |
| --- | --- |
| DQLEDLREHFKNTEEGK [QCR6] | 3.36 ± 0.072 |
| DQLSTISMILRNISFSD [SWI1] | 2.04 ± 0.069 |
| DRDALSGWGAVVYIIKK [PUP3] | 2.99 ± 0.06 |
| DRINYTETALMNLKKEL [SRB5] | 3.41 ± 0.088 |
| DRMAKYLHIRDKILQLN [PGD1] | 1.76 ± 0.099 |
| DSEKRNKYAAMLTSENA [RRP45] | 3.14 ± 0.067 |
| DSGRGAPLAKVVFRDPY [RPL2A] | 3.03 ± 0.072 |
| DSIIDNIVKLCFVHRYK [IRR1] | 1.99 ± 0.11 |
| DSLIQLANRSKENFILD [YJL039C/NUP192] | 3.23 ± 0.14 |
| DSRKNREQSSNDSETHT [BRN1] | 3.34 ± 0.11 |
| DSSSNTYRSRAQQVPPY [SIN4] | 3.15 ± 0.062 |
| DSTAVALEEGLNEEAVI [YJL039C/NUP192] | 2.68 ± 0.058 |
| DSTSHNNGSSDKSLDSS [MED1] | 3.08 ± 0.07 |
| DSVTTETGKLLSGLAQR [BRN1] | 2.66 ± 0.15 |
| DSYLDADKELSFEINVK [BRR2] | 3.08 ± 0.032 |
| DTADEAKTLIPSLNNKI [RPB4] | 3.1 ± 0.063 |
| DTAPKPNIVEIDLDNDE [DLS1] | 3.03 ± 0.079 |
| DTAVKTAETGYIQRRLV [RPO21] | 1.98 ± 0.12 |
| DTFGEGIIITDQSNVQY [BRR2] | 2.79 ± 0.1 |
| DTFYMNVESVGSIPVDQ [RPB3] | 2.67 ± 0.078 |
| DTICQSIQEQIQEFQGN [SNF5] | 3.36 ± 0.076 |
| DTKNLYVIKALQSLTSK [RPS10A] | 1.3 ± 0.16 |
| DTKNSKSESPSEVLVDT [ISW2] | 2.97 ± 0.082 |
| DTLKDISTSFCFICLLH [BRN1] | 2.27 ± 0.14 |
| DTRSTQGPIVADKNCAK [PUP1] | 3.15 ± 0.1 |

| Sequence | protein stability index |
| --- | --- |
| DTTVPKRLGPKRANNIR [RPS6A] | 3.19 ± 0.051 |
| DTVIIFDTDWNPHQDLQ [SNF2] | 3.02 ± 0.033 |
| DVDPIELVVFLPALCKK [RPL8A] | 2.64 ± 0.13 |
| DVIATEPQGAVTHMDQI [SMD3] | 2.28 ± 0.11 |
| DVLINELLDQVTLGREG [CDC53] | 3.06 ± 0.08 |
| DVQKSSDSSSEDEVKVE [YLR335W/NUP2] | 2.69 ± 0.099 |
| DVSPLRRVNQAIALLTI [RPS5] | 1.85 ± 0.15 |
| DVVTREYTINLHKRLHG [RPL31A] | 2.66 ± 0.069 |
| DWEKYKAPLEDDDKKPD [RPT1] | 2.96 ± 0.21 |
| DWQMMTSPVTGATEKRK [CSL4] | 2.3 ± 0.12 |
| DWVRFLALALGILYMGQ [RPN1] | 2.08 ± 0.14 |
| DYAQLDHLVSSIPMGGQ [ARP9] | 2.36 ± 0.067 |
| DYIKDEQRHLKRELKRA [RPT3] | 1.98 ± 0.14 |
| DYLFHLLISLNILFSLW [YLR018C/POM34] | 1.17 ± 0.072 |
| DYNFKYGIPLEFYNEMH [PRP8] | 1.78 ± 0.082 |
| DYYQSIYAKYGAKGSTL [FAS2] | 2.71 ± 0.067 |
| EAAAVRDLSEASVYPEY [RPS26A] | 2.65 ± 0.076 |
| EAASITRKSLNNAVRFS [ECM29] | 2.86 ± 0.055 |
| EAKDAIIELENINAKME [YIL149C/MLP2] | 3.02 ± 0.08 |
| EALAFTSLVANENDKIY [YDL116W/NUP84] | 2.02 ± 0.12 |
| EALLRSLLDAEEERRKK [SNF2] | 2.27 ± 0.17 |
| EAQANLLTAKHGMTLRE [RPO21] | 3.14 ± 0.063 |
| EASSLGYLDDSEILIIS [IRR1] | 1.91 ± 0.1 |
| EASTVPWGDYLQLETPA [BRR2] | 2.58 ± 0.14 |
| EAVELPLVQADLYEQIG [RPT3] | 3.39 ± 0.12 |

| Sequence | protein stability index |
| --- | --- |
| EAVIDEKLEVIADELMK [ITC1] | 3.21 ± 0.25 |
| ECYKQLFLTAPDSCNMQ [YCS4] | 2.85 ± 0.12 |
| EDAKLKTDLELLVERLK [RPN1] | 1.29 ± 0.14 |
| EDAKYVINLKQIAKFVV [RPT1] | 1.8 ± 0.21 |
| EDDEFEDFPIDTWANGE [SEM1] | 2.85 ± 0.11 |
| EDEEEEEEVTDQLEDLR [QCR6] | 3.47 ± 0.083 |
| EDFLDKSYYLNTVMLQG [AAR2] | 2.24 ± 0.15 |
| EDFLHFIVAEYIQQKKV [SRB4] | 2.28 ± 0.1 |
| EDFQKRQQKLLEDQQRQ [SWI1] | 3.14 ± 0.057 |
| EDLLECLDRCKEQYNRY [MTR3] | 3.24 ± 0.079 |
| EDMIDQVSKKLSSIEAS [SMC3] | 2.84 ± 0.12 |
| EDMIRSVFDATSDPVMH [RPN1] | 3.15 ± 0.23 |
| EDVVAISSRTFGQRAVL [RPS0A] | 3.02 ± 0.085 |
| EEAPAPTPAASAPAPAA [FAS2] | 2.85 ± 0.091 |
| EEDYNEFNSIDRVIFRV [PRP8] | 3.02 ± 0.19 |
| EEEYDETHETNISNAKL [YAR002W/NUP60] | 3.44 ± 0.087 |
| EEIPINSSEQESDYEPN [SIR3] | 3 ± 0.045 |
| EEISRLQRDLIQTKEQV [YIL149C/MLP2] | 3.13 ± 0.14 |
| EEIVSNSSRFSDPMLQR [YCS4] | 3.28 ± 0.096 |
| EEKQKSYKFPRGTTAVL [PUP1] | 3.14 ± 0.099 |
| EELFTQLFHSMSIVFGD [UBP6] | 3.38 ± 0.05 |
| EELINAAKGSSTSYAIK [RPS5] | 1.43 ± 0.068 |
| EELRGQQTEHETEIKDL [SMC4] | 3.48 ± 0.067 |
| EENFEATRTLVASIQND [YCG1] | 3 ± 0.14 |
| EEPIKKLCYVLGVEDIT [RET1] | 3.08 ± 0.15 |
